The subject of the data set is Escherichia coli TOP10. In words: shrunken log2 fold change of peptide-encoding DNA abundance (4.5 h post-induction vs induction); higher = less antimicrobial activity (less host growth inhibition). Conditions: time post-induction: 4.5 h; library: site-saturation at positions 5, 18, 19, 20.
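Note: peptides expressed intracellularly from a pBAD plasmid library in pooled LB shake-flask culture, induced with 0.3% L-arabinose, DNA abundance read by NGS, three biological replicates, DESeq2 with apeglm shrinkage.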

In the case of RRIRKRPPRLPRPRPRPLPWPRP, the “shrunken log2 fold change” value worked out at 0.814. For RRIRHRPPRLPRPRPRPGYPPRP the value was -0.0459. Regarding RRIRDRPPRLPRPRPRPPYGPRP, the “shrunken log2 fold change” value was -0.0609.

On to RRIRRRPPRLPRPRPRPAEGPRP, for which the “shrunken log2 fold change” value was -0.0943. Then RRIRDRPPRLPRPRPRPHCDPRP, with -0.0666.

For the sequence RRIRGRPPRLPRPRPRPGNAPRP, the “shrunken log2 fold change” value came out at 0.478. Take RRIRARPPRLPRPRPRPYDYPRP: the “shrunken log2 fold change” value was -0.282. Then RRIRNRPPRLPRPRPRPKGGPRP, with 0.226. Then RRIRERPPRLPRPRPRPAAWPRP, with 0.443; and RRIRWRPPRLPRPRPRPALGPRP, with 0.645; and RRIRSRPPRLPRPRPRPQVQPRP, with 0.374.

Regarding RRIRRRPPRLPRPRPRPPTWPRP, the “shrunken log2 fold change” value stood at 0.336.

RRIRVRPPRLPRPRPRPLDMPRP: the “shrunken log2 fold change” value is -0.024. For RRIRDRPPRLPRPRPRPPLSPRP the value was 0.0434; for RRIRTRPPRLPRPRPRPQAIPRP, 0.209; for RRIRGRPPRLPRPRPRPRCHPRP, 0.564. RRIRPRPPRLPRPRPRPYVFPRP: the “shrunken log2 fold change” value is -0.659.

RRIRARPPRLPRPRPRPSVVPRP: the “shrunken log2 fold change” value is -0.0244. Then RRIRHRPPRLPRPRPRPHHIPRP, with -1.53.

Take RRIRRRPPRLPRPRPRPSHDPRP: the “shrunken log2 fold change” value was -0.00919. Then RRIRKRPPRLPRPRPRPPYHPRP, with 0.0273; and RRIRFRPPRLPRPRPRPHFHPRP, with -0.75; and RRIRWRPPRLPRPRPRPTFMPRP, with -0.172. For RRIRARPPRLPRPRPRPHQCPRP the value was -0.0483. Then RRIRRRPPRLPRPRPRPPHTPRP, with 0.879; and RRIRVRPPRLPRPRPRPTHKPRP, with 0.333; and RRIRNRPPRLPRPRPRPMWQPRP, with -0.222.

On to RRIRPRPPRLPRPRPRPNHAPRP, for which the “shrunken log2 fold change” value is -0.162. Turning to RRIRERPPRLPRPRPRPSSLPRP, the “shrunken log2 fold change” value is -0.223. Regarding RRIRTRPPRLPRPRPRPFTKPRP, the “shrunken log2 fold change” value was -0.0107. Then RRIRYRPPRLPRPRPRPVRLPRP, with -0.0236. Then RRIRTRPPRLPRPRPRPCVVPRP, with -0.0223; and RRIRARPPRLPRPRPRPQHTPRP, with 0.156; and RRIRDRPPRLPRPRPRPVPLPRP, with 0.0621.

As to RRIRERPPRLPRPRPRPCMYPRP, the “shrunken log2 fold change” value is -0.201. Turning to RRIRVRPPRLPRPRPRPIGWPRP, the “shrunken log2 fold change” value amounted to 0.213. For RRIRKRPPRLPRPRPRPFPAPRP the value was 0.341; for RRIRWRPPRLPRPRPRPGPAPRP, 1.65; for RRIRFRPPRLPRPRPRPHKEPRP, -0.203. Then RRIRHRPPRLPRPRPRPMGGPRP, with 0.0348; and RRIRDRPPRLPRPRPRPCFPPRP, with -0.0323; and RRIRRRPPRLPRPRPRPDGPPRP, with 0.215. As to RRIRARPPRLPRPRPRPDVSPRP, the “shrunken log2 fold change” value was 0.106. For RRIRVRPPRLPRPRPRPFNIPRP the value was -0.425; for RRIRWRPPRLPRPRPRPSRDPRP, 0.479. Then RRIRRRPPRLPRPRPRPYMMPRP, with -0.699; and RRIRCRPPRLPRPRPRPIFRPRP, with -0.013; and RRIRYRPPRLPRPRPRPNREPRP, with 0.00551. For RRIRERPPRLPRPRPRPTRHPRP the value was 0.157.

For the sequence RRIRFRPPRLPRPRPRPDFPPRP, the “shrunken log2 fold change” value is -0.0311.
